Assay results published in patent US20230374083A1.

How the values were obtained:
[1] = target: trastuzumab; test: cell-based or functional assay
[2] = target: IgG1 in the sera of humans
[3] = target: human IVIg (an intravenous human immunoglobulin)
[4] = target: IgG1 in the sera of mice

Row | Molecule | cleavage of human IgG1, SDS-PAGE of cleavage products (fold of wild-type IdeE) [1] | other results
1 | IdeE A59L (enzyme) | > 2 | 
2 | IdeE A59V (enzyme) | > 2 | 
3 | IdeE E97D (enzyme) | > 2 | 
4 | IdeE R280H (enzyme) | > 2 | 
5 | IdeE T8D (enzyme) | > 2 | 
6 | IdeE T8W (enzyme) | > 2 | 
7 | IdeE T24A (enzyme) | > 2 | 
8 | E97D_del18 (protein) MITSVWTKGVTPLTPEQFRYNNEDVIHAPYLAHQGWYDITKAFDGKDNLLCGAATAGNMLHWWFDQNKTEIEAYLSKHPDKQKIIFNNQELFDLKAAIDTKDSQTNSQLFNYFRDKAFPNLSARQLGVMPDLVLDMFINGYYLNVFKTQSTDVNRPYQDKDKRGGIFDAVFTRGDQTTLLTARHDLKNKGLNDISTIIKQELTEGRALALSHTYANVSISHVINLWGADFNAEGNLEAIYVTDSDANASIGMKKYFVGINAHRHVAISAKKIEGENIGAQVLGLFTLSSGKDIWQKLSHHHHHH |  | cleavage of serum IgG in vitro, reducing SDS-PAGE (25 kD Fc fragment) [2]: E97D_del18 can effectively and specifically cleave IgG1 in the sera of humans; cleavage of human IVIg in mouse serum or plasma in vitro, non-reducing SDS-PAGE [3]: E97D_del18 can effectively cleave human IVIg in both the sera and plasmas of mice; cleavage of serum IgG in vitro, reducing SDS-PAGE (25 kD Fc fragment) [4]: has very low or no activity of cleaving IgG1 in the sera of mice
